B1: GPIHBP1^Cluster1-neutral: GPIHBP1 mutant with all Glu/Asp replaced by Gln/Asn at residues 1–17 (protein)
chain: QTQQQQQQQNQNHGPNNYDEEDEDEVEEEETNRLPGGGSRVLLRCYTCKSLPRDERCNLTQNCSHGQTCTTLIAHGNTESGLLTTHSTWCTDSCQPITKTVEGTQVTMTCCQSSLCNVPPWQSSRVQDPTG
modifications: Tyr18 sulfation present in less than 40%; one bi-antennary N-linked glycosylation; left off: uPAR domain III, N-terminal, cleaved
B2: GPIHBP1^Cluster2-neutral: GPIHBP1 mutant with all Glu/Asp replaced by Gln/Asn at residues 19–30 (protein)
chain: QTQQEEEEEDEDHGPDDYNQQNQNQVQQQQTNRLPGGGSRVLLRCYTCKSLPRDERCNLTQNCSHGQTCTTLIAHGNTESGLLTTHSTWCTDSCQPITKTVEGTQVTMTCCQSSLCNVPPWQSSRVQDPTG
modifications: Tyr18 sulfation absent; one bi-antennary N-linked glycosylation; left off: uPAR domain III, N-terminal, cleaved

Columns and labels:
bLPL [1] = assay: Protein stability by differential scanning fluorimetry (nano-DSF, turbidity); parameters: species or system bovine; conditions: 10 μM bLPL with 15 μM GPIHBP1 variant; 10 mM HEPES, 150 mM NaCl pH 7.4; 1°C/min, 15−95°C; back-reflection turbidity; triplicates
Description: The thermostability of bLPL in the presence or absence of GPIHBP1 was measured by differential scanning fluorometry (nano-DSF) with a Prometheus Panta (Nanotemper Technologies) using a previously published method ([22]). In brief; 10 μM bLPL alone or in the presence of 15 μM GPIHBP1^1–131, 15 μM GPIHBP1^Cluster1-neutral, or 15 μM GPIHBP1^Cluster2-neutra1 were prepared in 10 mM HEPES, 150 mM NaCl (pH 7.4) and heated in capillaries with a ramping temperature of 1°C/min from 15−95°C. Turbidity was measured by assessing back-reflection and was used as a surrogate marker for thermal unfolding ([20]). All samples were measured in triplicates.
Next, we probed if recombinant GPIHBP1^1–131 with defined neutralizations of charge-clusters 1 or 2 had distinct impacts on their ability to protect bLPL from ANGPTL4-mediated inactivation. […]
Fig. 4 GPIHBP1 clusters 1 and 2 have distinct impacts on LPL stability and inactivation by ANGPTL4. […] LPL activity was measured by the release of free fatty acids from Intralipid using the NEFA 2 assay. […] B: Thermostability of 10 μM bLPL in the presence of 15 μM of the different GPIHBP1 charge variants using Tturbidity measured by Prometheus Panta™ as a surrogate marker for unfolding ([20]).

bLPL [2] = assay: Lipase activity assay, protection against ANGPTL4-catalyzed LPL inactivation; format: biochemical, bovine; conditions: 30 nM bLPL, 30 nM ANGPTL4, 300 nM GPIHBP1 variant, room temperature up to 60 min; Intralipid, NEFA; triplicates

Row | Molecule | Tturbidity (thermal unfolding and aggregation of bLPL) (bLPL [1]) [°C] | protection of bLPL from ANGPTL4-mediated inactivation (time-dependent decay of LPL activity) (bLPL [2])
1 | B1 | 50.4 ± 0.2 | greater efficacy than GPIHBP1^Cluster2-neutral
2 | B2 | 48.8 ± 0.1 | 

Source: article PMC11869522, “Competitive displacement of lipoprotein lipase from heparan sulfate is orchestrated by a disordered acidic cluster in GPIHBP1” (Journal of Lipid Research, 2025)
